Test [1] has as its target human glucagon-like peptide-1 (GLP-1) receptor (human) (UniProt P43220). Nature of the test: cell-based or functional assay.
Test [2] has as its target human FGFR1c (FGF receptor 1c isoform) together with human beta-Klotho (KLB) (human), P11362. Nature of the test: cell-based or functional assay.

Sequence of UniProt P43220 (P43220 24-463): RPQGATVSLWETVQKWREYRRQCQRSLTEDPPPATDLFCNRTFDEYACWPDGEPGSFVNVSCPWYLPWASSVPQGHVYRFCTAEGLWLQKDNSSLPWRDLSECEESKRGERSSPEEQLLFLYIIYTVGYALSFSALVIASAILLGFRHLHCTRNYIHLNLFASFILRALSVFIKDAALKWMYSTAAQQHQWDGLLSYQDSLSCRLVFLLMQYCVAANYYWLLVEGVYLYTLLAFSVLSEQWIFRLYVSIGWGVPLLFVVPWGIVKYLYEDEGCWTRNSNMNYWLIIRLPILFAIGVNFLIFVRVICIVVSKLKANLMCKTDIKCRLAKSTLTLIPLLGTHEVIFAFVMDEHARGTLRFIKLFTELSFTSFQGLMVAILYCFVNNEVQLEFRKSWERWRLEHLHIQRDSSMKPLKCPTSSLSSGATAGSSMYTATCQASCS
Sequence of human FGFR1c (FGF receptor 1c isoform) together with human beta-Klotho (KLB) (human), P11362 (P11362 22-822, chain 1 of 2): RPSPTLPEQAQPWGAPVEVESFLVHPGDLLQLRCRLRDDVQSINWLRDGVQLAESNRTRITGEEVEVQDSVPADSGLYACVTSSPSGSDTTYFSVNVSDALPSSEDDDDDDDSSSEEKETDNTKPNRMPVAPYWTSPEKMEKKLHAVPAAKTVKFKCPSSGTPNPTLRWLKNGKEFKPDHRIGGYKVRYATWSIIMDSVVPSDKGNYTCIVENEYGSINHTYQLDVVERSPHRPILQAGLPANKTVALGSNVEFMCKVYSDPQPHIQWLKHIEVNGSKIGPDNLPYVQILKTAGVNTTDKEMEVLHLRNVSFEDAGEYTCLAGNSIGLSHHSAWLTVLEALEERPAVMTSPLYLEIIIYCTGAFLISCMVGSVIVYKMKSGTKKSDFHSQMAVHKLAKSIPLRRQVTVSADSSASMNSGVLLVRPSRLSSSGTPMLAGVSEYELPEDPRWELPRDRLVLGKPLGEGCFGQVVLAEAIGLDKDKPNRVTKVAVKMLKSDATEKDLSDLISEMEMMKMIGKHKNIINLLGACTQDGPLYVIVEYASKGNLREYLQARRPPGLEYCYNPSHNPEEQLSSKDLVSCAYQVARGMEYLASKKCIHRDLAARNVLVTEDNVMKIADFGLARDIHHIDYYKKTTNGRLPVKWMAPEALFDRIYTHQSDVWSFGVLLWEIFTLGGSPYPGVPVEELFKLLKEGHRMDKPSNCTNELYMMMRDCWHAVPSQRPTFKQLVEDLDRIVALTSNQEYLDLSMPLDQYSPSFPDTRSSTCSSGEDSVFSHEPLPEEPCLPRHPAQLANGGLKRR
Sequence of human FGFR1c (FGF receptor 1c isoform) together with human beta-Klotho (KLB) (human), P11362 (Q86Z14 whole entry, chain 2 of 2, further chain, canonical isoform): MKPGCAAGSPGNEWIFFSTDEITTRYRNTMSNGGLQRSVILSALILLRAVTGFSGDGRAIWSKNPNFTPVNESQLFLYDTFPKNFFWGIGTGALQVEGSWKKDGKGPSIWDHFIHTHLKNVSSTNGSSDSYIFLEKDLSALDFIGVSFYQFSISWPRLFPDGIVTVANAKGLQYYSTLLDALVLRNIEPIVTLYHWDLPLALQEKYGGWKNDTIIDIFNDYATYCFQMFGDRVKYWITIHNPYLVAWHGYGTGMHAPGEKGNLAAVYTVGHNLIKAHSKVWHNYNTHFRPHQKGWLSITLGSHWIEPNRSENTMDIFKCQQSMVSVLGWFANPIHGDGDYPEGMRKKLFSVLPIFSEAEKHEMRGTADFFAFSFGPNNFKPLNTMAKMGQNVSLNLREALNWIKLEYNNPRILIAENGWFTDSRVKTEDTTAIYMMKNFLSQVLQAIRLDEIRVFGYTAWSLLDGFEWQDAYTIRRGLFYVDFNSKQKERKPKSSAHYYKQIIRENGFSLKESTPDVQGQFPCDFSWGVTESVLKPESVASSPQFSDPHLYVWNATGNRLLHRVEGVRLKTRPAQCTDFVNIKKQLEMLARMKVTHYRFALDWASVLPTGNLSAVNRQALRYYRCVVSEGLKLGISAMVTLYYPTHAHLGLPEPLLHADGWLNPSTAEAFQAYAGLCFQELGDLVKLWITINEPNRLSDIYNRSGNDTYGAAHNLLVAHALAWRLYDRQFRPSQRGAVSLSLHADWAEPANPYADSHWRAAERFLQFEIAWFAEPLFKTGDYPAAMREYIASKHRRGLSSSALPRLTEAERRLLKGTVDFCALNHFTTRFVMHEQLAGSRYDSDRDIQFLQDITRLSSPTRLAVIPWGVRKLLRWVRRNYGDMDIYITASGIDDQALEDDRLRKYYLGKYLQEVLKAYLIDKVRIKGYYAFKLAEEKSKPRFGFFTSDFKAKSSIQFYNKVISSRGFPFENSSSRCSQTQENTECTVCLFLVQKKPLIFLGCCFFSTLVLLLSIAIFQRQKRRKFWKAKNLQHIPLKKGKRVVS

Regarding “GLP1(7-36) A8G, V16L, S18I, Y19Q, E21D, G22E, Q23E, A25V, K26R, E27L, A30E, V33E, K34A, G35T, R36G, (Fc fusion)”, in test [1], the EC50 of cAMP response (HTRF) amounted to 0.675 nM and the Ratio GLP-1R agonistic activity: native GLP-1(7-36)/tested GLP-1R agonist was 877 fold.

Consider “GLP1(7-36) A8G, V16L, S18K, Y19Q, G22E, Q23E, A25V, K26Q, E27L, A30E, V33E, K34A, G35T, R36G, insPSS (Fc fusion)”, for which, in test [1], the EC50 of cAMP response (HTRF) stood at 0.134 nM and the Ratio GLP-1R agonistic activity: native GLP-1(7-36)/tested GLP-1R agonist worked out at 174 fold.

With “GLP1(7-36) A8G, V16L, S18I, Y19Q, E21D, G22E, Q23E, A25V, K26R, E27L, A30E, V33L, K34A, G35T, R36G, (Fc fusion)”, in test [1], the EC50 of cAMP response (HTRF) stood at 0.0605 nM and the Ratio GLP-1R agonistic activity: native GLP-1(7-36)/tested GLP-1R agonist was 78.6 fold.

As for “GLP1(7-36) A8G, V16L, S18K, Y19Q, E21D, G22E, Q23E, A25V, K26Q, E27L, A30E, V33L, K34A, G35T, R36G, (Fc fusion)”, in test [1], the EC50 of cAMP response (HTRF) was determined as 0.173 nM and the Ratio GLP-1R agonistic activity: native GLP-1(7-36)/tested GLP-1R agonist was 225 fold.

B1: mature human wild-type FGF21, FGF21(His29-Ser209), Q9NSA1 29-209 (ligand)
chain: HPIPDSSPLLQFGGQVRQRYLYTDDAQQTEAHLEIREDGTVGGAADQSPESLLQLKALKPGVIQILGVKTSRFLCQRPDGALYGSLHFDPEACSFRELLLEDGYNVYQSEAHGLPLHLPGNKSPHRDPAPRGPARFLPLPGLPPAPPEPPGILAPQPPDVGSSDPLSMVGPSQGRSPSYAS
For B1, in test [2], the pERK ICW EC50 (downstream activation of the MAP kinase ERK1/2, In-Cell Western) turned out to be 0.18 nmol/L and the pFGFR ICW EC50 (FGF21 receptor autophosphorylation, In-Cell Western) was 4.8 nmol/L.

The values above are taken from patent US20220401523A1.
